± gives the standard deviation of the averaged measurements.
B1: library; a variant is named by its letters at N, in order (parent)
chain: GCUGUCACCGGUGUAUUACCCUAGUGGUCGACCGGUCUGAUGAGUCUNNNNNNAGACGAAACAGC

Experiments:
hypoxanthine [1] = variants of: B1; assay: FACS-Seq fitted mean relative fluorescence mCherry/BFP without ligand (log10 relative fluorescence); ligand: hypoxanthine (xanthine aptamer); higher = higher reporter protein expression; conditions: HEK293T, ligand present: no
In short: (§1)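 Fluorescence is reported as a normalized fitted mean of sorted-bin read counts. Lentivirally transduced HEK293T libraries (mCherry ribozyme-switch reporter, EF1α-BFP marker) were enriched, treated with or without ligand for 48 h, and sorted into 6 mCherry/BFP bins for MiSeq sequencing of PCR-amplified genomic DNA. The normal fit was on log10(mCherry/BFP), scaled to five spiked-in control ribozymes.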

hypoxanthine [2] = variants of: B1; assay: normalized RNA/DNA level with ligand (relative to sTRSVctl = 100) (log10 (% of sTRSVctl)); ligand: hypoxanthine (xanthine aptamer); higher = less ribozyme self-cleavage, higher mRNA level; conditions: ligand concentration (+) RNA-Seq: 5 mM, HEK293T, reporter: mCherry (pCS4076), ligand present: yes
Description: (§2)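 Hammerhead (sTRSV) ribozyme switch libraries with a ligand aptamer grafted on stem I and a randomized N4-6 loop II, cloned into the 3' UTR of mCherry and transiently transfected into HEK293T cells; RNA-Seq 72 h post transfection with ligand added 1 h before transfection; RNA read count / plasmid DNA read count normalized to the non-cleaving sTRSVctl (x100), log10; sequences with >100 DNA reads. FACS-Seq: lentiviral library sorted into 6 bins after 48 h ligand, log-normal fit mean of mCherry/BFP scaled to controls. Printed sequences are partial switch sequences.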

hypoxanthine [3] = variants of: B1; assay: normalized RNA/DNA level without ligand (relative to sTRSVctl = 100) (log10 (% of sTRSVctl)); ligand: hypoxanthine (xanthine aptamer); higher = less ribozyme self-cleavage, higher mRNA level; conditions: HEK293T, reporter: mCherry (pCS4076), ligand present: no
Description: as §2

hypoxanthine [4] = variants of: B1; assay: FACS-Seq fitted mean relative fluorescence mCherry/BFP with ligand (log10 relative fluorescence); ligand: hypoxanthine (xanthine aptamer); ligand concentration (+) FACS-Seq: 5 mM; higher = higher reporter protein expression; conditions: HEK293T, ligand present: yes
In short: as §1

| Variant | FACS-Seq fitted mean (log10) (hypoxanthine [1]) | normalized RNA/DNA level with ligand (log10) (hypoxanthine [2]) | normalized RNA/DNA level without ligand (log10) (hypoxanthine [3]) | FACS-Seq fitted mean (log10) (hypoxanthine [4]) |
| --- | --- | --- | --- | --- |
| AAUACG | 0.407 ± 0.1 | 1.844 ± 0.01 | 1.44 ± 0.067 | 0.609 ± 0.057 |
| GAUACG | -0.036 ± 0.019 | 1.87 ± 0.035 | 1.488 ± 0.0049 | 0.37 ± 0.033 |
| UAUACU | 0.344 ± 0.0075 | 1.93 ± 0.05 | 1.84 ± 0.065 | 0.343 ± 0.066 |
| CAUAGA | 1.171 ± 0.0012 | 1.931 ± 0.0061 | 1.767 ± 0.0051 | 0.849 ± 0.08 |
| AAUAGA | 0.386 ± 0.012 | 1.89 ± 0.027 | 1.63 ± 0.052 | 0.44 ± 0.055 |
| GAUAGA | 0.3713 ± 0.0031 | 1.89 ± 0.052 | 1.592 ± 0.01 | 0.547 ± 0.025 |
| AAUAGC | 0.38 ± 0.038 | 1.924 ± 0.0031 | 1.734 ± 0.0066 | 0.681 ± 0.17 |
| AAUAGG | 0.109 ± 0.012 | 1.75 ± 0.046 | 1.28 ± 0.1 | 0.509 ± 0.025 |
| GAUAGG | -0.0874 ± 0.036 | 1.737 ± 0.017 | 1.27 ± 0.04 | 0.506 ± 0.068 |
| AAUAGU | 0.36 ± 0.029 | 1.87 ± 0.027 | 1.61 ± 0.016 | 0.505 ± 0.041 |
| UAUAGU | 0.0206 ± 0.046 | 1.86 ± 0.029 | 1.57 ± 0.063 | 0.131 ± 0.037 |
| AAUAUA | 0.619 ± 0.062 | 1.89 ± 0.024 | 1.78 ± 0.034 | 0.599 ± 0.07 |
| GAUAUA | 0.804 ± 0.057 | 1.91 ± 0.034 | 1.8 ± 0.061 | 0.741 ± 0.0099 |
| UAUAUA | 0.814 ± 0.011 | 1.95 ± 0.04 | 1.836 ± 0.018 | 0.838 ± 0.068 |
| AAUAUG | 0.333 ± 0.056 | 1.84 ± 0.04 | 1.462 ± 0.014 | 0.53 ± 0.0062 |
| GAUAUG | 0.0367 ± 0.045 | 1.85 ± 0.029 | 1.39 ± 0.017 | 0.215 ± 0.097 |
| UAUAUG | 0.385 ± 0.02 | 1.88 ± 0.049 | 1.723 ± 0.013 | 0.531 ± 0.025 |
| GAUCAA | 0.497 ± 0.07 | 1.9 ± 0.03 | 1.833 ± 0.0048 | 0.708 ± 0.034 |
| UAUCAA | 0.456 ± 0.02 | 1.91 ± 0.029 | 1.81 ± 0.021 | 0.414 ± 0.055 |
| AAUCAC | -0.698 ± 0.014 | 1.95 ± 0.04 | 1.849 ± 0.0051 | -0.545 ± 0.04 |
| GAUCAC | 0.374 ± 0.035 | 1.99 ± 0.068 | 1.87 ± 0.025 | 0.417 ± 0.071 |
| UAUCAC | 0.6449 ± 0.00099 | 1.909 ± 0.012 | 1.86 ± 0.04 | 0.584 ± 0.023 |
| AAUCAU | 0.507 ± 0.019 | 1.9 ± 0.027 | 1.8365 ± 0.00062 | 0.523 ± 0.057 |
| GAUCAU | 0.447 ± 0.026 | 1.91 ± 0.033 | 1.919 ± 0.018 | 0.521 ± 0.023 |

| Variant | FACS-Seq fitted mean (log10) (hypoxanthine [1]) | normalized RNA/DNA level with ligand (log10) (hypoxanthine [2]) | normalized RNA/DNA level without ligand (log10) (hypoxanthine [3]) | FACS-Seq fitted mean (log10) (hypoxanthine [4]) |
| --- | --- | --- | --- | --- |
| AAUCCG | 0.134 ± 0.0095 | 1.86 ± 0.073 | 1.423 ± 0.0043 | 0.584 ± 0.0084 |
| GAUCCG | 0.0801 ± 0.012 | 1.94 ± 0.048 | 1.77 ± 0.051 | 0.31 ± 0.0077 |
| UAUCCG | 0.207 ± 0.053 | 1.927 ± 0.019 | 1.71 ± 0.035 | 0.451 ± 0.096 |
| AAUCCU | 0.417 ± 0.063 | 1.94 ± 0.04 | 1.887 ± 0.008 | 0.433 ± 0.13 |
| CAUCGA | 0.435 ± 0.017 | 1.97 ± 0.052 | 1.84 ± 0.029 | 0.6297 ± 0.0034 |
| UAUCGC | 0.437 ± 0.11 | 1.947 ± 0.015 | 1.86 ± 0.047 | 0.239 ± 0.064 |
| AAUCGG | 0.134 ± 0.047 | 1.837 ± 0.013 | 1.373 ± 0.006 | 0.58 ± 0.038 |
| GAUCGG | 0.125 ± 0.0082 | 1.911 ± 0.012 | 1.59 ± 0.07 | 0.418 ± 0.018 |
| UAUCGG | 0.2578 ± 0.0003 | 1.86 ± 0.024 | 1.47 ± 0.027 | 0.5888 ± 0.0049 |
| AAUCUA | 0.651 ± 0.051 | 1.922 ± 0.014 | 1.8 ± 0.059 | 0.6869 ± 0.0045 |
| AAUCUG | 0.297 ± 0.034 | 1.85 ± 0.022 | 1.43 ± 0.1 | 0.656 ± 0.024 |
| CAUGAA | 0.0197 ± 0.067 | 1.87 ± 0.026 | 1.68 ± 0.022 | 0.341 ± 0.056 |
| GAUGAA | 0.529 ± 0.025 | 1.886 ± 0.0083 | 1.711 ± 0.013 | 0.52 ± 0.051 |
| CAUGAC | -0.299 ± 0.099 | 1.937 ± 0.006 | 1.793 ± 0.017 | 0.254 ± 0.046 |
| GAUGAC | 0.654 ± 0.023 | 1.92 ± 0.02 | 1.72 ± 0.023 | 0.526 ± 0.07 |
| AAUGAC | 0.585 ± 0.07 | 1.894 ± 0.0079 | 1.83 ± 0.049 | 0.5447 ± 0.0044 |
| UAUGAC | 0.282 ± 0.084 | 1.95 ± 0.047 | 1.807 ± 0.01 | 0.457 ± 0.11 |
| CAUGAG | -0.0522 ± 0.019 | 1.924 ± 0.011 | 1.562 ± 0.0089 | 0.35 ± 0.039 |
| GAUGAG | 0.0708 ± 0.0074 | 1.74 ± 0.028 | 1.3 ± 0.067 | 0.572 ± 0.047 |
| AAUGAG | 0.0392 ± 0.012 | 1.81 ± 0.039 | 1.3 ± 0.022 | 0.472 ± 0.044 |
| CAUGAU | 0.296 ± 0.088 | 1.905 ± 0.0035 | 1.73 ± 0.032 | 0.333 ± 0.077 |
| GAUGAU | 0.537 ± 0.094 | 1.91 ± 0.05 | 1.767 ± 0.015 | 0.495 ± 0.025 |
| AAUGAU | 0.38227 ± 0.00021 | 1.88 ± 0.041 | 1.683 ± 0.0061 | 0.571 ± 0.06 |
| AAUGCA | 0.304 ± 0.078 | 1.9039 ± 0.0013 | 1.772 ± 0.012 | 0.563 ± 0.029 |

| Variant | FACS-Seq fitted mean (log10) (hypoxanthine [1]) | normalized RNA/DNA level with ligand (log10) (hypoxanthine [2]) | normalized RNA/DNA level without ligand (log10) (hypoxanthine [3]) | FACS-Seq fitted mean (log10) (hypoxanthine [4]) |
| --- | --- | --- | --- | --- |
| GAUGCC | 0.537 ± 0.022 | 1.96 ± 0.024 | 1.879 ± 0.018 | 0.5688 ± 0.0033 |
| CAUGCG | 0.687 ± 0.064 | 1.92 ± 0.049 | 1.91 ± 0.082 | 0.645 ± 0.005 |
| GAUGCG | 0.0728 ± 0.0046 | 1.87 ± 0.038 | 1.498 ± 0.0066 | 0.5658 ± 0.0024 |
| AAUGCG | -0.0193 ± 0.038 | 1.85 ± 0.03 | 1.42 ± 0.089 | 0.462 ± 0.044 |
| CAUGCU | 0.614 ± 0.036 | 1.97 ± 0.039 | 1.904 ± 0.013 | 0.529 ± 0.073 |
| GAUGCU | -0.0807 ± 0.06 | 1.93 ± 0.063 | 1.867 ± 0.012 | 0.0649 ± 0.0092 |
| GAUGGA | 0.4617 ± 0.0039 | 1.913 ± 0.0011 | 1.67 ± 0.036 | 0.698 ± 0.029 |
| AAUGGA | 0.265 ± 0.081 | 1.88 ± 0.022 | 1.61 ± 0.038 | 0.192 ± 0.36 |
| GAUGGC | 0.369 ± 0.012 | 1.89 ± 0.016 | 1.598 ± 0.0036 | 0.596 ± 0.041 |
| UAUGGC | -0.121 ± 0.027 | 1.92 ± 0.012 | 1.82 ± 0.022 | 0.322 ± 0.0061 |
| CAUGGG | 0.245 ± 0.013 | 1.86 ± 0.038 | 1.39 ± 0.038 | 0.603 ± 0.0033 |
| GAUGGG | -0.0971 ± 0.21 | 1.81 ± 0.025 | 1.3 ± 0.053 | 0.3779 ± 0.0029 |
| AAUGGG | 0.049 ± 0.035 | 1.77 ± 0.052 | 1.25 ± 0.063 | 0.547 ± 0.047 |
| UAUGGG | 0.525 ± 0.08 | 1.857 ± 0.0095 | 1.41 ± 0.084 | 0.723 ± 0.072 |
| CAUGGU | 0.331 ± 0.045 | 1.82 ± 0.02 | 1.755 ± 0.0046 | 0.455 ± 0.014 |
| GAUGGU | 0.501 ± 0.024 | 1.95 ± 0.07 | 1.76 ± 0.022 | 0.748 ± 0.062 |
| UAUGGU | 0.514 ± 0.064 | 1.88 ± 0.036 | 1.527 ± 0.004 | 0.643 ± 0.029 |
| AAUGUA | 0.284 ± 0.0037 | 1.9 ± 0.088 | 1.79 ± 0.047 | 0.204 ± 0.0096 |
| UAUGUC | -0.423 ± 0.035 | 1.944 ± 0.011 | 1.95 ± 0.053 | -0.356 ± 0.048 |
| GAUGUG | 0.2 ± 0.026 | 1.82 ± 0.019 | 1.31 ± 0.06 | 0.673 ± 0.077 |
| AAUGUG | 0.203 ± 0.0069 | 1.82 ± 0.026 | 1.39 ± 0.05 | 0.573 ± 0.036 |
| UAUGUG | -0.0408 ± 0.016 | 1.91 ± 0.022 | 1.7 ± 0.034 | 0.0665 ± 0.031 |
| GAUGUU | 0.33 ± 0.0059 | 1.914 ± 0.017 | 1.841 ± 0.0059 | 0.447 ± 0.029 |
| AAUGUU | 0.678 ± 0.033 | 1.9 ± 0.072 | 1.85 ± 0.038 | 0.605 ± 0.077 |
